Values of other authors as cited in publication doi:10.1101/2023.01.13.523947.
pKd: −log10 of the molar value.

Tested on: 35I9 anti-DNA mAb (Mus musculus (NZWxNZB F1))

Row | Substance | pKd
1 | ssDNA (cited Kd) | 6.15
2 | dsDNA (cited Kd) | 7.05
